Results taken from patent publication US20220144956A1 (published 2022).

B1: H1 L1.12 XENP34575 (antibody, V domains shown)
VH: QLQVQESGPGLVKPSETLSLTCTVSGGSISNSYFSWGWIRQPPGKGLEWIGSFYYGEKTYYNPSLKSRATISIDTSKSQFSLKLSSVTAADTAVYYCPRGPTMIRGVIDSWGQGTLVTVSS
VL: EIVLTQSPATLSLSPGERATLSCRASQSVRTYLAWYQQKPGQAPRLLIYDASNRATGIPARFSGSGSGTDFTLTISSLEPEDFAVYYCQQRSNWPPTFGQGTKVEIK
B2: H1 L1.42 XENP34605 (antibody, V domains shown)
VH: QLQVQESGPGLVKPSETLSLTCTVSGGSISNSYFSWGWIRQPPGKGLEWIGSFYYGEKTYYNPSLKSRATISIDTSKSQFSLKLSSVTAADTAVYYCPRGPTMIRGVIDSWGQGTLVTVSS
VL: EIVLTQSPATLSLSPGERATLSCRASQSVRSYLAWYQQKPGQAPRLLIYDASNRATGIPARFSGSGSGTDFTLTISSLEPEDFAVYYCQQRGNWPPTFGQGTKVEIK
B3: H1 L1.9 XENP34572 (antibody, V domains shown)
VH: QLQVQESGPGLVKPSETLSLTCTVSGGSISNSYFSWGWIRQPPGKGLEWIGSFYYGEKTYYNPSLKSRATISIDTSKSQFSLKLSSVTAADTAVYYCPRGPTMIRGVIDSWGQGTLVTVSS
VL: EIVLTQSPATLSLSPGERATLSCRASQSVQSYLAWYQQKPGQAPRLLIYDASNRATGIPARFSGSGSGTDFTLTISSLEPEDFAVYYCQQRSNWPPTFGQGTKVEIK
B4: H1 L1.35 XENP34598 (antibody, V domains shown)
VH: QLQVQESGPGLVKPSETLSLTCTVSGGSISNSYFSWGWIRQPPGKGLEWIGSFYYGEKTYYNPSLKSRATISIDTSKSQFSLKLSSVTAADTAVYYCPRGPTMIRGVIDSWGQGTLVTVSS
VL: EIVLTQSPATLSLSPGERATLSCRASQSVRSYLAWYQQKPGQAPRLLIYDASNRATGIPARFSGSGSGTDFTLTISSLEPEDFATYYCQQRSNWPPTFGQGTKVEIK
B5: H1 L1.40 XENP34603 (antibody, V domains shown)
VH: QLQVQESGPGLVKPSETLSLTCTVSGGSISNSYFSWGWIRQPPGKGLEWIGSFYYGEKTYYNPSLKSRATISIDTSKSQFSLKLSSVTAADTAVYYCPRGPTMIRGVIDSWGQGTLVTVSS
VL: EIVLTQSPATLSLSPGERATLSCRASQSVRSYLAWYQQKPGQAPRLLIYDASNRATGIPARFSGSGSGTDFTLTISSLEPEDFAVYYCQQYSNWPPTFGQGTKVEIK
B6: H1 L1.22 XENP34585 (antibody, V domains shown)
VH: QLQVQESGPGLVKPSETLSLTCTVSGGSISNSYFSWGWIRQPPGKGLEWIGSFYYGEKTYYNPSLKSRATISIDTSKSQFSLKLSSVTAADTAVYYCPRGPTMIRGVIDSWGQGTLVTVSS
VL: EIVLTQSPATLSLSPGERATLSCRASQSVRSYLAWYQQKPGQAPRLLIYSASNRATGIPARFSGSGSGTDFTLTISSLEPEDFAVYYCQQRSNWPPTFGQGTKVEIK
B7: H1.31 L1 XENP34487 (antibody, V domains shown)
VH: QLQVQESGPGLVKPSETLSLTCTVSGGSISNSYFSIGWIRQPPGKGLEWIGSFYYGEKTYYNPSLKSRATISIDTSKSQFSLKLSSVTAADTAVYYCPRGPTMIRGVIDSWGQGTLVTVSS
VL: EIVLTQSPATLSLSPGERATLSCRASQSVRSYLAWYQQKPGQAPRLLIYDASNRATGIPARFSGSGSGTDFTLTISSLEPEDFAVYYCQQRSNWPPTFGQGTKVEIK
B8: H1.18 L1 XENP34474 (antibody, V domains shown)
VH: QLQVQESGPGLVKPSETLSLTCTVSGGSISNAYFSWGWIRQPPGKGLEWIGSFYYGEKTYYNPSLKSRATISIDTSKSQFSLKLSSVTAADTAVYYCPRGPTMIRGVIDSWGQGTLVTVSS
VL: EIVLTQSPATLSLSPGERATLSCRASQSVRSYLAWYQQKPGQAPRLLIYDASNRATGIPARFSGSGSGTDFTLTISSLEPEDFAVYYCQQRSNWPPTFGQGTKVEIK
B9: H1.25 L1 XENP34481 (antibody, V domains shown)
VH: QLQVQESGPGLVKPSETLSLTCTVSGGSISNSYHSWGWIRQPPGKGLEWIGSFYYGEKTYYNPSLKSRATISIDTSKSQFSLKLSSVTAADTAVYYCPRGPTMIRGVIDSWGQGTLVTVSS
VL: EIVLTQSPATLSLSPGERATLSCRASQSVRSYLAWYQQKPGQAPRLLIYDASNRATGIPARFSGSGSGTDFTLTISSLEPEDFAVYYCQQRSNWPPTFGQGTKVEIK
B10: H1.3 L1 XENP34459 (antibody, V domains shown)
VH: QVQLQESGPGLVKPSETLSLTCTVSGGSISNSYFSWGWIRQPPGKGLEWIGSFYYGEKTYYNPSLKSRATISIDTSKSQFSLKLSSVTAADTAVYYCPRGPTMIRGVIDSWGQGTLVTVSS
VL: EIVLTQSPATLSLSPGERATLSCRASQSVRSYLAWYQQKPGQAPRLLIYDASNRATGIPARFSGSGSGTDFTLTISSLEPEDFAVYYCQQRSNWPPTFGQGTKVEIK
B11: H1.17 L1 XENP34473 (antibody, V domains shown)
VH: QLQVQESGPGLVKPSETLSLTCTVSGGSISRSYFSWGWIRQPPGKGLEWIGSFYYGEKTYYNPSLKSRATISIDTSKSQFSLKLSSVTAADTAVYYCPRGPTMIRGVIDSWGQGTLVTVSS
VL: EIVLTQSPATLSLSPGERATLSCRASQSVRSYLAWYQQKPGQAPRLLIYDASNRATGIPARFSGSGSGTDFTLTISSLEPEDFAVYYCQQRSNWPPTFGQGTKVEIK
B12: H1.32 L1 XENP34488 (antibody, V domains shown)
VH: QLQVQESGPGLVKPSETLSLTCTVSGGSISNSYFSMGWIRQPPGKGLEWIGSFYYGEKTYYNPSLKSRATISIDTSKSQFSLKLSSVTAADTAVYYCPRGPTMIRGVIDSWGQGTLVTVSS
VL: EIVLTQSPATLSLSPGERATLSCRASQSVRSYLAWYQQKPGQAPRLLIYDASNRATGIPARFSGSGSGTDFTLTISSLEPEDFAVYYCQQRSNWPPTFGQGTKVEIK
B13: H1.9 L1 XENP34465 (antibody, V domains shown)
VH: QLQVQESGPGLVKPSETLSLTCTVSGGSFSNSYFSWGWIRQPPGKGLEWIGSFYYGEKTYYNPSLKSRATISIDTSKSQFSLKLSSVTAADTAVYYCPRGPTMIRGVIDSWGQGTLVTVSS
VL: EIVLTQSPATLSLSPGERATLSCRASQSVRSYLAWYQQKPGQAPRLLIYDASNRATGIPARFSGSGSGTDFTLTISSLEPEDFAVYYCQQRSNWPPTFGQGTKVEIK
B14: H1.29 L1 XENP34485 (antibody, V domains shown)
VH: QLQVQESGPGLVKPSETLSLTCTVSGGSISNSYFTWGWIRQPPGKGLEWIGSFYYGEKTYYNPSLKSRATISIDTSKSQFSLKLSSVTAADTAVYYCPRGPTMIRGVIDSWGQGTLVTVSS
VL: EIVLTQSPATLSLSPGERATLSCRASQSVRSYLAWYQQKPGQAPRLLIYDASNRATGIPARFSGSGSGTDFTLTISSLEPEDFAVYYCQQRSNWPPTFGQGTKVEIK
B15: H1.26 L1 XENP34482 (antibody, V domains shown)
VH: QLQVQESGPGLVKPSETLSLTCTVSGGSISNSYSSWGWIRQPPGKGLEWIGSFYYGEKTYYNPSLKSRATISIDTSKSQFSLKLSSVTAADTAVYYCPRGPTMIRGVIDSWGQGTLVTVSS
VL: EIVLTQSPATLSLSPGERATLSCRASQSVRSYLAWYQQKPGQAPRLLIYDASNRATGIPARFSGSGSGTDFTLTISSLEPEDFAVYYCQQRSNWPPTFGQGTKVEIK
B16: H1.11 L1 XENP34467 (antibody, V domains shown)
VH: QLQVQESGPGLVKPSETLSLTCTVSGGSISDSYFSWGWIRQPPGKGLEWIGSFYYGEKTYYNPSLKSRATISIDTSKSQFSLKLSSVTAADTAVYYCPRGPTMIRGVIDSWGQGTLVTVSS
VL: EIVLTQSPATLSLSPGERATLSCRASQSVRSYLAWYQQKPGQAPRLLIYDASNRATGIPARFSGSGSGTDFTLTISSLEPEDFAVYYCQQRSNWPPTFGQGTKVEIK
B17: H1.20 L1 XENP34476 (antibody, V domains shown)
VH: QLQVQESGPGLVKPSETLSLTCTVSGGSISNTYFSWGWIRQPPGKGLEWIGSFYYGEKTYYNPSLKSRATISIDTSKSQFSLKLSSVTAADTAVYYCPRGPTMIRGVIDSWGQGTLVTVSS
VL: EIVLTQSPATLSLSPGERATLSCRASQSVRSYLAWYQQKPGQAPRLLIYDASNRATGIPARFSGSGSGTDFTLTISSLEPEDFAVYYCQQRSNWPPTFGQGTKVEIK
B18: H1.5 L1 XENP34461 (antibody, V domains shown)
VH: QLQVQESGSGLVKPSETLSLTCTVSGGSISNSYFSWGWIRQPPGKGLEWIGSFYYGEKTYYNPSLKSRATISIDTSKSQFSLKLSSVTAADTAVYYCPRGPTMIRGVIDSWGQGTLVTVSS
VL: EIVLTQSPATLSLSPGERATLSCRASQSVRSYLAWYQQKPGQAPRLLIYDASNRATGIPARFSGSGSGTDFTLTISSLEPEDFAVYYCQQRSNWPPTFGQGTKVEIK
B19: H1.16 L1 XENP34472 (antibody, V domains shown)
VH: QLQVQESGPGLVKPSETLSLTCTVSGGSISQSYFSWGWIRQPPGKGLEWIGSFYYGEKTYYNPSLKSRATISIDTSKSQFSLKLSSVTAADTAVYYCPRGPTMIRGVIDSWGQGTLVTVSS
VL: EIVLTQSPATLSLSPGERATLSCRASQSVRSYLAWYQQKPGQAPRLLIYDASNRATGIPARFSGSGSGTDFTLTISSLEPEDFAVYYCQQRSNWPPTFGQGTKVEIK
B20: H1.33 L1 XENP34489 (antibody, V domains shown)
VH: QLQVQESGPGLVKPSETLSLTCTVSGGSISNSYFSWAWIRQPPGKGLEWIGSFYYGEKTYYNPSLKSRATISIDTSKSQFSLKLSSVTAADTAVYYCPRGPTMIRGVIDSWGQGTLVTVSS
VL: EIVLTQSPATLSLSPGERATLSCRASQSVRSYLAWYQQKPGQAPRLLIYDASNRATGIPARFSGSGSGTDFTLTISSLEPEDFAVYYCQQRSNWPPTFGQGTKVEIK
B21: H1.34 L1 XENP34490 (antibody, V domains shown)
VH: QLQVQESGPGLVKPSETLSLTCTVSGGSISNSYFSWHWIRQPPGKGLEWIGSFYYGEKTYYNPSLKSRATISIDTSKSQFSLKLSSVTAADTAVYYCPRGPTMIRGVIDSWGQGTLVTVSS
VL: EIVLTQSPATLSLSPGERATLSCRASQSVRSYLAWYQQKPGQAPRLLIYDASNRATGIPARFSGSGSGTDFTLTISSLEPEDFAVYYCQQRSNWPPTFGQGTKVEIK
B22: H1 L1 WT XENP28298 (antibody, V domains shown)
VH: QLQVQESGPGLVKPSETLSLTCTVSGGSISNSYFSWGWIRQPPGKGLEWIGSFYYGEKTYYNPSLKSRATISIDTSKSQFSLKLSSVTAADTAVYYCPRGPTMIRGVIDSWGQGTLVTVSS
VL: EIVLTQSPATLSLSPGERATLSCRASQSVRSYLAWYQQKPGQAPRLLIYDASNRATGIPARFSGSGSGTDFTLTISSLEPEDFAVYYCQQRSNWPPTFGQGTKVEIK

These binders were tested against T1, human TGFßRII (antigen of the Octet experiments) (human, UniProt P37173 23-166) (assay: BLI (Octet)).
T1 sequence (P37173 23-166): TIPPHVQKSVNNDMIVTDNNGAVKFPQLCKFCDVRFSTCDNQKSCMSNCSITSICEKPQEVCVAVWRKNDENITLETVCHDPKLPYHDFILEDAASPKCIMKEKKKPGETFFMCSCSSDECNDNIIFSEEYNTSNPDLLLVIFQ

First: B1
Second: B2
The Kd of the first is 5.5-fold lower: 0.539 nM for the first, 2.94 nM for the second. The first binds more tightly here.

Compared with B3, B4 is 48-fold lower in Kd: 16.4 nM for the first, 0.344 nM for the second.

First: B5
Second: B6
The Kd of the first is 30-fold higher: 23.1 nM for the first, 0.782 nM for the second. The second binds more tightly here.

Target: T1, human TGFßRII (antigen of the Octet …)
Experiment: BLI (Octet)
Remark: another data set of the same source

First: B7
Second: B8
The Kd of the first is 36-fold higher: 7.28 nM for the first, 0.205 nM for the second.

First: B9
Second: B10
The Kd of the first is 410-fold higher: 0.415 nM for the first, 0.001 nM for the second. The second binds more tightly here.

Going from B11 to B12, the Kd rises from 0.292 nM to 2.47 nM (8.5-fold). The first binds more tightly here.

Going from B13 to B14, the Kd rises from 0.496 nM to 1.79 nM (3.6-fold).

First: B15
Second: B16
The Kd of the first is 1.5-fold lower: 0.273 nM for the first, 0.419 nM for the second. The first binds more tightly here.

Going from B17 to B18, the Kd falls from 0.559 nM to 0.245 nM (2.3-fold). The second binds more tightly here.

B19 and B20 are within 1.5-fold of each other in Kd: 0.407 nM for the first, 0.414 nM for the second.

First: B21
Second: B22
The Kd of the first is 5700-fold higher: 5.73 nM for the first, 0.001 nM for the second.
